B1: KCNA3 (parent)
chain: YQSGGRIRRPVNVPIDIFSEEIRF

Variants of: B1
Assay: protein stability index of a GFP-peptide fusion (GPS, HEK-293T) (PSI 1-6); higher = more stable
Conditions: c terminus: a fixed tail appended
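Note: lentivirally expressed fusions sorted by FACS into six bins by GFP to DsRed ratio, PSI derived from sequencing read proportions per bin multiplied by bin number.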

Variant | protein stability index
YQSGGRIRREVNVPIDIFSEEIRF | 2.02
YQSGGRIRRFVNVPIDIFSEEIRF | 1.39
YQSGGRIRRGVNVPIDIFSEEIRF | 2.48
YQSGGRIRRIVNVPIDIFSEEIRF | 1.78
YQSGGRIRRKVNVPIDIFSEEIRF | 1.33
YQSGGRIRRLVNVPIDIFSEEIRF | 1.6
YQSGGRIRRMVNVPIDIFSEEIRF | 1.62
YQSGGRIRRNVNVPIDIFSEEIRF | 1.64
YQSGGRIRRQVNVPIDIFSEEIRF | 1.53
YQSGGRIRRRVNVPIDIFSEEIRF | 1.64
YQSGGRIRRSVNVPIDIFSEEIRF | 2.43
YQSGGRIRRTVNVPIDIFSEEIRF | 2.83
YQSGGRIRRVVNVPIDIFSEEIRF | 1.91
YQSGGRIRRWVNVPIDIFSEEIRF | 2.7
YQSGGRIRRYVNVPIDIFSEEIRF | 1.76
YQSGGRIRRPANVPIDIFSEEIRF | 2.49
YQSGGRIRRPCNVPIDIFSEEIRF | 2.39
YQSGGRIRRPDNVPIDIFSEEIRF | 1.69
YQSGGRIRRPENVPIDIFSEEIRF | 3.13
YQSGGRIRRPFNVPIDIFSEEIRF | 2.02
YQSGGRIRRPGNVPIDIFSEEIRF | 1.79
YQSGGRIRRPHNVPIDIFSEEIRF | 1.66
YQSGGRIRRPINVPIDIFSEEIRF | 1.7
YQSGGRIRRPKNVPIDIFSEEIRF | 1.85

Variant | protein stability index
YQSGGRIRRPLNVPIDIFSEEIRF | 1.44
YQSGGRIRRPMNVPIDIFSEEIRF | 2.01
YQSGGRIRRPNNVPIDIFSEEIRF | 2.42
YQSGGRIRRPPNVPIDIFSEEIRF | 1.83
YQSGGRIRRPQNVPIDIFSEEIRF | 2.03
YQSGGRIRRPRNVPIDIFSEEIRF | 2.37
YQSGGRIRRPSNVPIDIFSEEIRF | 1.74
YQSGGRIRRPTNVPIDIFSEEIRF | 1.98
YQSGGRIRRPYNVPIDIFSEEIRF | 2.18
YQSGGRIRRPVAVPIDIFSEEIRF | 1.8
YQSGGRIRRPVCVPIDIFSEEIRF | 2.62
YQSGGRIRRPVDVPIDIFSEEIRF | 1.8
YQSGGRIRRPVEVPIDIFSEEIRF | 1.8
YQSGGRIRRPVFVPIDIFSEEIRF | 1.35
YQSGGRIRRPVGVPIDIFSEEIRF | 1.83
YQSGGRIRRPVHVPIDIFSEEIRF | 3.14
YQSGGRIRRPVIVPIDIFSEEIRF | 1.93
YQSGGRIRRPVKVPIDIFSEEIRF | 1.91
YQSGGRIRRPVLVPIDIFSEEIRF | 1.4
YQSGGRIRRPVMVPIDIFSEEIRF | 2.26
YQSGGRIRRPVPVPIDIFSEEIRF | 2.11
YQSGGRIRRPVQVPIDIFSEEIRF | 2.34
YQSGGRIRRPVRVPIDIFSEEIRF | 1.28
YQSGGRIRRPVSVPIDIFSEEIRF | 2.63

Variant | protein stability index
YQSGGRIRRPVTVPIDIFSEEIRF | 2.17
YQSGGRIRRPVVVPIDIFSEEIRF | 1.41
YQSGGRIRRPVWVPIDIFSEEIRF | 2.21
YQSGGRIRRPVYVPIDIFSEEIRF | 1.08
YQSGGRIRRPVNAPIDIFSEEIRF | 1.88
YQSGGRIRRPVNCPIDIFSEEIRF | 1.78
YQSGGRIRRPVNDPIDIFSEEIRF | 2.14
YQSGGRIRRPVNEPIDIFSEEIRF | 2.14
YQSGGRIRRPVNFPIDIFSEEIRF | 1.86
YQSGGRIRRPVNGPIDIFSEEIRF | 2.31
YQSGGRIRRPVNHPIDIFSEEIRF | 2.19
YQSGGRIRRPVNIPIDIFSEEIRF | 2.43
YQSGGRIRRPVNKPIDIFSEEIRF | 2.36
YQSGGRIRRPVNLPIDIFSEEIRF | 1.95
YQSGGRIRRPVNMPIDIFSEEIRF | 2.25
YQSGGRIRRPVNNPIDIFSEEIRF | 2.13
YQSGGRIRRPVNPPIDIFSEEIRF | 1.86
YQSGGRIRRPVNQPIDIFSEEIRF | 2.42
YQSGGRIRRPVNRPIDIFSEEIRF | 2.01
YQSGGRIRRPVNSPIDIFSEEIRF | 2.11
YQSGGRIRRPVNTPIDIFSEEIRF | 1.82
YQSGGRIRRPVNWPIDIFSEEIRF | 2.01
YQSGGRIRRPVNYPIDIFSEEIRF | 1.69
YQSGGRIRRPVNVAIDIFSEEIRF | 1.81

Variant | protein stability index
YQSGGRIRRPVNVCIDIFSEEIRF | 1.33
YQSGGRIRRPVNVDIDIFSEEIRF | 1.85
YQSGGRIRRPVNVEIDIFSEEIRF | 1.43
YQSGGRIRRPVNVFIDIFSEEIRF | 1.07
YQSGGRIRRPVNVGIDIFSEEIRF | 1.9
YQSGGRIRRPVNVHIDIFSEEIRF | 2.02
YQSGGRIRRPVNVIIDIFSEEIRF | 2.88
YQSGGRIRRPVNVKIDIFSEEIRF | 1.78
YQSGGRIRRPVNVLIDIFSEEIRF | 2.85
YQSGGRIRRPVNVMIDIFSEEIRF | 3.25
YQSGGRIRRPVNVQIDIFSEEIRF | 3.61
YQSGGRIRRPVNVSIDIFSEEIRF | 1.42
YQSGGRIRRPVNVTIDIFSEEIRF | 1.81
YQSGGRIRRPVNVVIDIFSEEIRF | 1.61
YQSGGRIRRPVNVWIDIFSEEIRF | 2.98
YQSGGRIRRPVNVPADIFSEEIRF | 3.48
YQSGGRIRRPVNVPCDIFSEEIRF | 2.13
YQSGGRIRRPVNVPDDIFSEEIRF | 2.33
YQSGGRIRRPVNVPEDIFSEEIRF | 2.11
YQSGGRIRRPVNVPFDIFSEEIRF | 1.48
YQSGGRIRRPVNVPGDIFSEEIRF | 2.4
YQSGGRIRRPVNVPHDIFSEEIRF | 2.16

Source: the supplement of paper PMC10567573
